Results as given in US20030224390A1, “Method of identifying conformation-sensitive binding peptides and uses thereof” (Karo Bio AB, priority 2000, published 2003).

T1: estrogen receptor (ER) α as a carboxy-terminal fusion to the Gal4 activation domain (yeast, UniProt P03372 1-595, limits assumed)
T1 sequence (looked up): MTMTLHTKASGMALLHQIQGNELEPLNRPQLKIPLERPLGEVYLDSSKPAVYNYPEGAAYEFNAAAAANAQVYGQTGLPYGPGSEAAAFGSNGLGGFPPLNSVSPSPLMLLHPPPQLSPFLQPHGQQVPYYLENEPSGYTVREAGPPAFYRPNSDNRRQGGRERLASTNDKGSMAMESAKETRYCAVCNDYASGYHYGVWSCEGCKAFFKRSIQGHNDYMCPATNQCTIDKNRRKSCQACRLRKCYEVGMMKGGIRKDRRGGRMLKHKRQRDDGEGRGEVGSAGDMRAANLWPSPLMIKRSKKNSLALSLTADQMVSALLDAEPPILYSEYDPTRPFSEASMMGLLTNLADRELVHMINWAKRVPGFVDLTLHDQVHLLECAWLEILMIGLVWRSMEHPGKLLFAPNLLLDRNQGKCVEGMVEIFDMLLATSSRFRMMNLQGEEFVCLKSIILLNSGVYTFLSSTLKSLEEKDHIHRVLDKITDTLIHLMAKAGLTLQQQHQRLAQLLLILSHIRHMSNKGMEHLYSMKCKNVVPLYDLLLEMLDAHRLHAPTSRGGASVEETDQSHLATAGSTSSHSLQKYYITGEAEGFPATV

T2: Gal4 transcriptional activation domain (AD) fused in frame with AR (pGAD-C2) (yeast), P10275
T2 chain: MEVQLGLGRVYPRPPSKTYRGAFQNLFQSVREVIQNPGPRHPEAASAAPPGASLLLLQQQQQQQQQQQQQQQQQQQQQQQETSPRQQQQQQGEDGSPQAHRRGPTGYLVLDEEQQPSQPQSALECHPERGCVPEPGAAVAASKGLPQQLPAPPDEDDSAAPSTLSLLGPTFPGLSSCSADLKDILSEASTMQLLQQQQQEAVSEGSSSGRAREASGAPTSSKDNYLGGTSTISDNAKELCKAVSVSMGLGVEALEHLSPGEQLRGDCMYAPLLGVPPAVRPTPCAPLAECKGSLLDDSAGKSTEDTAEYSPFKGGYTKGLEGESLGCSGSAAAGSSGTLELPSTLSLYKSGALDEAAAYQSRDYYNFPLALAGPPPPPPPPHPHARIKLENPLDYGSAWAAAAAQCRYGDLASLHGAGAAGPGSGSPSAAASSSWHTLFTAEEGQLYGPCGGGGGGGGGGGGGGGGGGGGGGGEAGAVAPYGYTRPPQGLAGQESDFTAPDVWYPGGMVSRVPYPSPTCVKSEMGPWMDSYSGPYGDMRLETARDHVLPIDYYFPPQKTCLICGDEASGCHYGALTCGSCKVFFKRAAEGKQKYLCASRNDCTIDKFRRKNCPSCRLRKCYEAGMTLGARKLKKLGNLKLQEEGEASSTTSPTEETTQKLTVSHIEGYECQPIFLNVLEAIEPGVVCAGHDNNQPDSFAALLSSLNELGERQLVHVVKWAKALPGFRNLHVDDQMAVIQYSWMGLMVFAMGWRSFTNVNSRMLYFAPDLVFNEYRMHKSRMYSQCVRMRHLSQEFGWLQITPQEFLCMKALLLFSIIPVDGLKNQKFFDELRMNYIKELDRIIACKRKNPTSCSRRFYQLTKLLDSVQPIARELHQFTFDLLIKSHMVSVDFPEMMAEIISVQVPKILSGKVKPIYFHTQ

T3: pVP16-AR (VP16 activation domain fused to androgen receptor), P10275
T3 chain: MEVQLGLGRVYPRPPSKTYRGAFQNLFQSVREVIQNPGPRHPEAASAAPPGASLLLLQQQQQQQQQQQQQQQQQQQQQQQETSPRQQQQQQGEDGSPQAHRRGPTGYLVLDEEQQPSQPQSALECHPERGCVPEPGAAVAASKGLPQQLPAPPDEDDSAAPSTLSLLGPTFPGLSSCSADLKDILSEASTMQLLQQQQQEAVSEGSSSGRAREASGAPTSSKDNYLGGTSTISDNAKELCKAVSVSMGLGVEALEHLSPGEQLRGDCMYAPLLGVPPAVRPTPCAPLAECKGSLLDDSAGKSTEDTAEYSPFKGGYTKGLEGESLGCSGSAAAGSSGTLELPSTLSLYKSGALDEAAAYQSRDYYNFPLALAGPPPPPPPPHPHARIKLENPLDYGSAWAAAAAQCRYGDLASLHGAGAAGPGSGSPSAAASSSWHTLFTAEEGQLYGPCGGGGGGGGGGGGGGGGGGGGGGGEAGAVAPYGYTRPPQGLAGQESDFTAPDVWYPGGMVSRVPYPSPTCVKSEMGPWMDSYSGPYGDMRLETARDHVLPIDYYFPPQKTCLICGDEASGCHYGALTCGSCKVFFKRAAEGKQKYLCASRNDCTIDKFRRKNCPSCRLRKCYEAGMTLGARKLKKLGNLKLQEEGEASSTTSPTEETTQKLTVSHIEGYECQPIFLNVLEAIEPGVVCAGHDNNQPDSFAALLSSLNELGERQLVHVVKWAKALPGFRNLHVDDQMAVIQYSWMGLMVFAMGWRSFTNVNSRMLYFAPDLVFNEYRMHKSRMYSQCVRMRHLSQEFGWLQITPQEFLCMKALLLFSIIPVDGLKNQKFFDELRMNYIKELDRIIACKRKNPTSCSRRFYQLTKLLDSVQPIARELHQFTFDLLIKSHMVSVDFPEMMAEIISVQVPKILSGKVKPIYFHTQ

T4: estrogen receptor (ER) α (Homo sapiens, UniProt P03372)
T4 construct: expressed in transfected cells; host or cells: Saccharomyces cerevisiae PJ69-α
T4 sequence (P03372 1-595): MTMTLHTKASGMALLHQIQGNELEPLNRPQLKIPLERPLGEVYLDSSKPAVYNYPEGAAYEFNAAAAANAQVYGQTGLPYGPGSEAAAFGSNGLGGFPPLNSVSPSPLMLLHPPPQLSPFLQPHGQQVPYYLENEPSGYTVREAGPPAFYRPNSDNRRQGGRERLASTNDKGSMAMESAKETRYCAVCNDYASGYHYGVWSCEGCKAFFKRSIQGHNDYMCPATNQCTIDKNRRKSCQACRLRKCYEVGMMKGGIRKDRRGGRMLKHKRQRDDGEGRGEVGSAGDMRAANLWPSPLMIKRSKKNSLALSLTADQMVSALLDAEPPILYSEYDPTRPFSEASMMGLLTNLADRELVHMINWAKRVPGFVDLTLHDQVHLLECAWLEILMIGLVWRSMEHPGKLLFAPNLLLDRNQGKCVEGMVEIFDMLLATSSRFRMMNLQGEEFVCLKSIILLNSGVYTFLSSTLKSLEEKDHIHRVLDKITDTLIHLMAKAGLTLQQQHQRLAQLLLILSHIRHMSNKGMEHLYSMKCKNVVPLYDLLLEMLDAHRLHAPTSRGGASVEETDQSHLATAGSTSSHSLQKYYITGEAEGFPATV

B1: B6A1 (peptide)
chain: MKLLSSIEQACDICRLKKLKCSKEKPKCAKCLKNNWECRYSPKTKRSPLTRAHLTEVESRLERLEQLFLLIFPREDLDMILKMDSLQDIKALLTGLFVQDNVNKDAVTDRLASVETDMPLTLRQHRISATSSSEESSNKGQRQLTVSEFTGSRLLLKLLRFPDSSTCSQA
B2: B8E9, P04386 1-147 (peptide)
chain: MKLLSSIEQACDICRLKKLKCSKEKPKCAKCLKNNWECRYSPKTKRSPLTRAHLTEVESRLERLEQLFLLIFPREDLDMILKMDSLQDIKALLTGLFVQDNVNKDAVTDRLASVETDMPLTLRQHRISATSSSEESSNKGQRQLTVSEFQQCMCAEVKSWLGGSLDLQPS
modifications: not checked
B3: B8H3, P04386 1-147 (peptide)
chain: MKLLSSIEQACDICRLKKLKCSKEKPKCAKCLKNNWECRYSPKTKRSPLTRAHLTEVESRLERLEQLFLLIFPREDLDMILKMDSLQDIKALLTGLFVQDNVNKDAVTDRLASVETDMPLTLRQHRISATSSSEESSNKGQRQLTVSEFHSRLRVEVVSWGIGSTCSQANSGRISYDL
modifications: not checked

The molecules below were run against T1, estrogen receptor (ER) α as a … (assay: cell-based or functional assay). Conditions: not given.

Molecule	fold induction of β-galactosidase by estradiol, yeast two-hybrid [fold]
B1	3.5

Molecular target: T2, Gal4 transcriptional activation domain …
Test: cell-based or functional assay
Conditions: not given

Molecule	Fold induction, yeast two-hybrid [fold]	β-galactosidase activity, yeast two-hybrid; CPA	β-galactosidase activity, yeast two-hybrid; DHT	β-galactosidase activity, yeast two-hybrid; No Lig	β-galactosidase activity, yeast two-hybrid; RU
B2	4	0.563	1.75	0.499	0.8
B3	22	0.393	3.81	0.174	0

Molecular target: T3, pVP16-AR (VP16 activation domain fused …)
Test: cell-based or functional assay
Conditions: not given

Molecule	normalized luciferase activity, mammalian two-hybrid; CYP.	normalized luciferase activity, mammalian two-hybrid; DHT	normalized luciferase activity, mammalian two-hybrid; MPA	normalized luciferase activity, mammalian two-hybrid; RU486	normalized luciferase activity, mammalian two-hybrid; no compound
B2	16	19.6	18.5	10.2	0.209
B3	10.5	11.6	11.3	3.88	0.132

Each molecule was assayed against T4, estrogen receptor (ER) α (assay: Yeast two-hybrid screening of LXXLL peptide library, ligand induced β-galactosidase activity (FIG. 1, Table 501)). Conditions: with and without estradiol.
Format: cell-based
Description: A directed peptide library (X5LXXLLX5, SEQ ID NO:264) containing the LXXLL motif (previously identified as common in peptides binding estrogen receptor) as a carboxy-terminal fusion to the Gal4 DNA binding domain was constructed with an overall complexity of […] independent peptides. The LXXLL motif library peptides were encoded by the degenerate DNA sequence (NNK)5TTA(NNK)2(TTA)2(NNK)5 (SEQ ID NO:265); TTA is the preferred Leu codon in yeast. NNK encodes a stop codon so a few of the peptides generated will be shorter than 15 a.a. The shortest interacting peptides will likely be 10-mers. This library was transformed into the Saccharomyces cerevisiae PJ69-α yeast strain expressing estrogen receptor (ER) α as a carboxy-terminal fusion to the Gal4 activation domain. […] Those colonies able to grow by inducing the integrated GAL4 driven HIS3 reporter were transferred into 0.25 ml of rich media in a 0.5 ml block.
Cells were pelleted by centrifugation, the media removed and the cells lysed with buffer containing 2.5% CHAPS (3-(3-Cholamidopropyl) dimethyl ammonio-1-propanesulfonate) detergent. A preliminary OD600 was determined to normalize β-galactosidase activity of each well with cell density. […] Yeast clones that generated a value equal to or greater than 0.5 were verified using the same method. Verified clones were then subjected to a final test of ligand induced β-galactosidase activity. […] Ten clones displaying the greatest ligand induced β-galactosidase activity were studied further.
Plasmids containing the peptides were isolated from the yeast cells and the amino acid sequences (Table 501) deduced by DNA sequencing of the library inserts. In Table 501, the underlined sequence is encoded by vector DNA, and the “*” represents the endogenous stop codon of the vector, and is downstream of the cloning site. Several peptides contain the vector-encoded LDLQPS (SEQ ID NO:266) sequence. B5H10 is believed to be the result of a double insert, with the second part being encoded by the complementary sequence. Peptides B1A1 and B1G8 were shorter than the other isolates because the clones encoding them carry a premature stop codon, which is inherent in the NNK library. Because of a frame shift, neither peptide B6A1 nor B3E2 contained the sequence encoded by vector DNA.

Molecule	Fold Induction (ligand induced β-galactosidase activity)
EFCPVGLLVHLLMQ* [B1A1]	11
EFFRATHLLRLLRTDSALDLQPS* [B6F3]	3
EFFRLRRLDRLLQDSFLLDLQPS* [B2G1]	12
EFGCSAILRYLLRSPRDLDLQPS* [B5A2]	2.5
EFGGSVLLRELLCCYDALEPTTTR [B3E2]	3
EFSGVPILHMLLMLPSSLDLQOPS* [B4F6]	5
